B1: cGMP-dependent protein kinase 1 (Homo sapiens), Q13976 (parent)
chain: MSELEEDFAKILMLKEERIKELEKRLSEKEEEIQELKRKLHKCQSVLPVPSTHIGPRTTRAQGISAEPQTYRSFHDLRQAFRKFTKSERSKDLIKEAILDNDFMKNLELSQIQEIVDCMYPVEYGKDSCIIKEGDVGSLVYVMEDGKVEVTKEGVKLCTMGPGKVFGELAILYNCTRTATVKTLVNVKLWAIDRQCFQTIMMRTGLIKHTEYMEFLKSVPTFQSLPEEILSKLADVLEETHYENGEYIIRQGARGDTFFIISKGTVNVTREDSPSEDPVFLRTLGKGDWFGEKALQGEDVRTANVIAAEAVTCLVIDRDSFKHLIGGLDDVSNKAYEDAEAKAKYEAEAAFFANLKLSDFNIIDTLGVGGFGRVELVQLKSEESKTFAMKILKKRHIVDTRQQEHIRSEKQIMQGAHSDFIVRLYRTFKDSKYLYMLMEACLGGELWTILRDRGSFEDSTTRFYTACVVEAFAYLHSKGIIYRDLKPENLILDHRGYAKLVDFGFAKKIGFGKKTWTFCGTPEYVAPEIILNKGHDISADYWSLGILMYELLTGSPPFSGPDPMKTYNIILRGIDMIEFPKKIAKNAANLIKKLCRDNPSERLGNLKNGVKDIQKHKWFEGFNWEGLRKGTLTPPIIPSVASPTDTSNFDSFPEDNDEPPPDDNSGWDIDF
partner: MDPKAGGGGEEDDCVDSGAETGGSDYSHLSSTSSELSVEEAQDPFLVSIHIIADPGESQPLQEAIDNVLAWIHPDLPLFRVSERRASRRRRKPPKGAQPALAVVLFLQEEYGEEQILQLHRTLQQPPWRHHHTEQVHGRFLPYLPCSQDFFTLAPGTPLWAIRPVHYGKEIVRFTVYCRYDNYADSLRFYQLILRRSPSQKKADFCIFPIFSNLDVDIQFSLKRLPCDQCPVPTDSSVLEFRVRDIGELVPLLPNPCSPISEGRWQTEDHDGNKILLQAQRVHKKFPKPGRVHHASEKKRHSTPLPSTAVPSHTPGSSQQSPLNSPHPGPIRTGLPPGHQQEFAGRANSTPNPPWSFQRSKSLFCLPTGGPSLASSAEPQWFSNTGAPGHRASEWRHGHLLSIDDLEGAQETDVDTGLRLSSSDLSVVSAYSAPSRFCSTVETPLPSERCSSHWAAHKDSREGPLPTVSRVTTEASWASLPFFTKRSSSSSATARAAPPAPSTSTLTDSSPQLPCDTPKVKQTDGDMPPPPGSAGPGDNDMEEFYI
B2: Chondroitin sulfate N-acetylgalactosaminyltransferase 2 (Homo sapiens), Q8N6G5 (parent)
chain: MPRRGLILHTRTHWLLLGLALLCSLVLFMYLLECAPQTDGNASLPGVVGENYGKEYYQALLQEQEEHYQTRATSLKRQIAQLKQELQEMSEKMRSLQERRNVGANGIGYQSNKEQAPSDLLEFLHSQIDKAEVSIGAKLPSEYGVIPFESFTLMKVFQLEMGLTRHPEEKPVRKDKRDELVEVIEAGLEVINNPDEDDEQEDEEGPLGEKLIFNENDFVEGYYRTERDKGTQYELFFKKADLTEYRHVTLFRPFGPLMKVKSEMIDITRSIINIIVPLAERTEAFVQFMQNFRDVCIHQDKKIHLTVVYFGKEGLSKVKSILESVTSESNFHNYTLVSLNEEFNRGRGLNVGARAWDKGEVLMFFCDVDIYFSAEFLNSCRLNAEPGKKVFYPVVFSLYNPAIVYANQEVPPPVEQQLVHKKDSGFWRDFGFGMTCQYRSDFLTIGGFDMEVKGWGGEDVHLYRKYLHGDLIVIRTPVPGLFHLWHEKRCADELTPEQYRMCIQSKAMNEASHSHLGMLVFREEIETHLHKQAYRTNSEAVG
partner: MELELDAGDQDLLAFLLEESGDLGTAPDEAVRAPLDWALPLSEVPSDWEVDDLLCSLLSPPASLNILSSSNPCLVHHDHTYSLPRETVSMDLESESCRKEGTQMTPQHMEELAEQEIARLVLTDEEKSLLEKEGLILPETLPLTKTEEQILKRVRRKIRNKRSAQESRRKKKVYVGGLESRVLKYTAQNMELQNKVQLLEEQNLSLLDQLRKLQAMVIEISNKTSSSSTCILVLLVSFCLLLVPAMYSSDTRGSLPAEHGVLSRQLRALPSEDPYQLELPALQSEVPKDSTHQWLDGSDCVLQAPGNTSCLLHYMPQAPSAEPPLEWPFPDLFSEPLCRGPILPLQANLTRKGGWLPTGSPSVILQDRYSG
B3: Src kinase-associated phosphoprotein 1 (Homo sapiens), Q86WV1 (parent)
chain: MQAAALPEEIRWLLEDAEEFLAEGLRNENLSAVARDHRDHILRGFQQIKARYYWDFQPQGGDIGQDSSDDNHSGTLGLSLTSDAPFLSDYQDEGMEDIVKGAQELDNVIKQGYLEKKSKDHSFFGSEWQKRWCVVSRGLFYYYANEKSKQPKGTFLIKGYGVRMAPHLRRDSKKESCFELTSQDRRSYEFTATSPAEARDWVDQISFLLKDLSSLTIPYEEDEEEEEKEETYDDIDGFDSPSCGSQCRPTILPGSVGIKEPTEEKEEEDIYEVLPDEEHDLEEDESGTRRKGVDYASYYQGLWDCHGDQPDELSFQRGDLIRILSKEYNMYGWWVGELNSLVGIVPKEYLTTAFEVEER
B4: Protein DDI1 homolog 1 (Homo sapiens), Q8WTU0 (parent)
chain: MLITVYCVRRDLSEVTFSLQVSPDFELRNFKVLCEAESRVPVEEIQIIHMERLLIEDHCSLGSYGLKDGDIVVLLQKDNVGPRAPGRAPNQPRVDFSGIAVPGTSSSRPQHPGQQQQRTPAAQRSQGLASGEKVAGLQGLGSPALIRSMLLSNPHDLSLLKERNPPLAEALLSGSLETFSQVLMEQQREKALREQERLRLYTADPLDREAQAKIEEEIRQQNIEENMNIAIEEAPESFGQVTMLYINCKVNGHPLKAFVDSGAQMTIMSQACAERCNIMRLVDRRWAGVAKGVGTQRIIGRVHLAQIQIEGDFLQCSFSILEDQPMDMLLGLDMLRRHQCSIDLKKNVLVIGTTGTQTYFLPEGELPLCSRMVSGQDESSDKEITHSVMDSGRKEH
partner: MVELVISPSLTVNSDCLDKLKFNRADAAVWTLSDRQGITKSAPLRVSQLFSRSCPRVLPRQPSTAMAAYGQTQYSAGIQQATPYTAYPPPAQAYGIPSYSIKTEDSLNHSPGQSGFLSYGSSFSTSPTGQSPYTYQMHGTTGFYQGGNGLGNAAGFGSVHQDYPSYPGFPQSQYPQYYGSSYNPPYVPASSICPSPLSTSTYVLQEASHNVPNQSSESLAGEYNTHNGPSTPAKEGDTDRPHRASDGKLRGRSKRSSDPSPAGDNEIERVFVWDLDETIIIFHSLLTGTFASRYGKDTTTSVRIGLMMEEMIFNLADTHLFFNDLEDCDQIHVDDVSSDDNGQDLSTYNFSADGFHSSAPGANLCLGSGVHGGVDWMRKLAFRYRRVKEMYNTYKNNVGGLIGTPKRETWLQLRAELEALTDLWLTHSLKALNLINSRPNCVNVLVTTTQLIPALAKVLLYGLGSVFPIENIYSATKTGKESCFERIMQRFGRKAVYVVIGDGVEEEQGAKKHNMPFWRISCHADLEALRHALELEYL
B5: Isoform 1 of 1-aminocyclopropane-1-carboxylate synthase-like protein 1 (Homo sapiens), Q96QU6-1 (parent)
chain: MFTLPQKDFRAPTTCLGPTCMQDLGSSHGEDLEGECSRKLDQKLPELRGVGDPAMISSDTSYLSSRGRMIKWFWDSAEEGYRTYHMDEYDEDKNPSGIINLGTSENKLCFDLLSWRLSQRDMQRVEPSLLQYADWRGHLFLREEVAKFLSFYCKSPVPLRPENVVVLNGGASLFSALATVLCEAGEAFLIPTPYYGAITQHVCLYGNIRLAYVYLDSEVTGLDTRPFQLTVEKLEMALREAHSEGVKVKGLILISPQNPLGDVYSPEELQEYLVFAKRHRLHVIVDEVYMLSVFEKSVGYRSVLSLERLPDPQRTHVMWATSKDFGMSGLRFGTLYTENQDVATAVASLCRYHGLSGLVQYQMAQLLRDRDWINQVYLPENHARLKAAHTYVSEELRALGIPFLSRGAGFFIWVDLRKYLPKGTFEEEMLLWRRFLDNKVLLSFGKAFECKEPGWFRFVFSDQVHRLCLGMQRVQQVLAGKSQVAEDPRPSQSQEPSDQRR
partner: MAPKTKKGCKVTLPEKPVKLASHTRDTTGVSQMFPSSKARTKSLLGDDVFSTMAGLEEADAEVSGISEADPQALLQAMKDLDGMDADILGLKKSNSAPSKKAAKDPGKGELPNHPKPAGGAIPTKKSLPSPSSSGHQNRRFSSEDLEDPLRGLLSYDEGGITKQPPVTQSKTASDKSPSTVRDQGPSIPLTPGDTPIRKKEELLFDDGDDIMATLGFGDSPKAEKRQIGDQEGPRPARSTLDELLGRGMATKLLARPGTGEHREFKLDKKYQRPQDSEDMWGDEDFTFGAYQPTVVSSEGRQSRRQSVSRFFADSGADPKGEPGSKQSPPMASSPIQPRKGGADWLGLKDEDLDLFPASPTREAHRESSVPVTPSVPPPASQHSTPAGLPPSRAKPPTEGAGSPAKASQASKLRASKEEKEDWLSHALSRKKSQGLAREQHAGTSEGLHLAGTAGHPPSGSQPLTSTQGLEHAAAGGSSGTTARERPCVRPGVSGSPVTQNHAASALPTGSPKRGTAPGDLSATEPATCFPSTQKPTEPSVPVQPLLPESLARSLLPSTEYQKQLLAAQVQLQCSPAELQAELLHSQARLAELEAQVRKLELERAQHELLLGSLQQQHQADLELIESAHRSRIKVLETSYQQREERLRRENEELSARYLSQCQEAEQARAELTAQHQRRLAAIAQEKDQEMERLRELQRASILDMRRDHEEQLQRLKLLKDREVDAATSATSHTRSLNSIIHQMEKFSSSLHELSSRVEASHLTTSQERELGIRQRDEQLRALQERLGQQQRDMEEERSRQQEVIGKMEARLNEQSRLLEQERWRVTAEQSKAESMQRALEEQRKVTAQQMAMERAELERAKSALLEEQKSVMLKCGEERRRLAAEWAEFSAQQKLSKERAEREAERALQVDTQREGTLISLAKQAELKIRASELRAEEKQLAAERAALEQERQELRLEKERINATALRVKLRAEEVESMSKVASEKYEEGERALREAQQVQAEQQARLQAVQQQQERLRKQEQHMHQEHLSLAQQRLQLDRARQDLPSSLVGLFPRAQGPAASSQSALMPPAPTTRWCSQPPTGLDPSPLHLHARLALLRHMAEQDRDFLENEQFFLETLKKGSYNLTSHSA
B6: Vesicle transport through interaction with t-SNAREs homolog 1B (Homo sapiens), Q9UEU0 (parent)
chain: MASSAASSEHFEKLHEIFRGLHEDLQGVPERLLGTAGTEEKKKLIRDFDEKQQEANETLAEMEEELRYAPLSFRNPMMSKLRNYRKDLAKLHREVRSTPLTATPGGRGDMKYGIYAVENEHMNRLQSQRAMLLQGTESLNRATQSIERSHRIATETDQIGSEIIEELGEQRDQLERTKSRLVNTSENLSKSRKILRSMSRKVTTNKLLLSIIILLELAILGGLVYYKFFRSH
partner: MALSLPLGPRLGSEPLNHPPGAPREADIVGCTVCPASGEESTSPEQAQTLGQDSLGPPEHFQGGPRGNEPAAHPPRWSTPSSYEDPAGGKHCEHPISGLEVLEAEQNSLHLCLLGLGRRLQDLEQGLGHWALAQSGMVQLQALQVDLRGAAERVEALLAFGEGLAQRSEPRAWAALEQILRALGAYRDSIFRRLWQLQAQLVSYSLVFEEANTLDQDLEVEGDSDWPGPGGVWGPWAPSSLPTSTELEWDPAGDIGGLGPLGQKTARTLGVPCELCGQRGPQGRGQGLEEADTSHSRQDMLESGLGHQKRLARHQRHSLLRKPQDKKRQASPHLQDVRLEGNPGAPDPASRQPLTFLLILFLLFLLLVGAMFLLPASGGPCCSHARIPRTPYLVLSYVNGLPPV

Variants of: B1
Details: with FAM124A

Row | effect of a mutation on the interaction | Variant
1 | with no effect | N267S

Variants of: B2
Details: with creb3_human CREB3, O43889

Row | effect of a mutation on the interaction | Variant
2 | with no effect | P479S

Variants of: B3
Details: with pram_human PRAM1, Q96QH2
Chain of pram_human PRAM1, Q96QH2 (Q96QH2 whole entry): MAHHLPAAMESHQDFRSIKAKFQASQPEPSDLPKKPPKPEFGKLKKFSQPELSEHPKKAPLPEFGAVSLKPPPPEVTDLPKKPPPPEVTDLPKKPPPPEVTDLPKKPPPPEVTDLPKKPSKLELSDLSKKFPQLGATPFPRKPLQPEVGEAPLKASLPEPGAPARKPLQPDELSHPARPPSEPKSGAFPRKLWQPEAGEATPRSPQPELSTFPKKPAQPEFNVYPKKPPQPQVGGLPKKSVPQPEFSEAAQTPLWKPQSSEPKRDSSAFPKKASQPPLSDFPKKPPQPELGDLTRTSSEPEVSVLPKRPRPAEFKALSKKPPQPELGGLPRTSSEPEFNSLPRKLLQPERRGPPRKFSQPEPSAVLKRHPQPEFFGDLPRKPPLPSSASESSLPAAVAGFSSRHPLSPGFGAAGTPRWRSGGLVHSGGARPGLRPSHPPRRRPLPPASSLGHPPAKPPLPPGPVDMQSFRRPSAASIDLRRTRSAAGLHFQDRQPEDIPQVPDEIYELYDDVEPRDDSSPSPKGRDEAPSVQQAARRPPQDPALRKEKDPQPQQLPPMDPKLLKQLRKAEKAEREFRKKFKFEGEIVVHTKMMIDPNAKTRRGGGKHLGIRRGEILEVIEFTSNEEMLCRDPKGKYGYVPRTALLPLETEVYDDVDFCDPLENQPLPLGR

Row | effect of a mutation on the interaction | Variant
3 | with no effect | G161S

Variants of: B3
Details: with eeig1_human EEIG1, Q5T9C2
Chain of eeig1_human EEIG1, Q5T9C2 (Q5T9C2 whole entry): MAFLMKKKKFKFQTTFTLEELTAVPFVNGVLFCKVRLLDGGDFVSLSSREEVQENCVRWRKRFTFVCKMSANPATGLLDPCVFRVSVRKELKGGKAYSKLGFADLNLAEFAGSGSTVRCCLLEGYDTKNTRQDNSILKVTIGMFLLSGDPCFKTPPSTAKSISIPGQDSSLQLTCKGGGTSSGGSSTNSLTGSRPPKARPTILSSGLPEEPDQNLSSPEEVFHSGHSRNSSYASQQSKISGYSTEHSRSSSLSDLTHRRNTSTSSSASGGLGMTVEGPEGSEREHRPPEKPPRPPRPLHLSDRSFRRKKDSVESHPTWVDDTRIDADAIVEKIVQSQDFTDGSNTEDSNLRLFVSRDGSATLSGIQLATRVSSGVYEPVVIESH

Row | effect of a mutation on the interaction | Variant
4 | with no effect | S242G

Variants of: B4
Details: with eya2_human EYA2, O00167

Row | effect of a mutation on the interaction | Variant
5 | with no effect | D323N
6 | with no effect | R208G
7 | with no effect | R87C
8 | with no effect | G136S

Variants of: B5
Details: with fbf1_human FBF1, Q8TES7

Row | effect of a mutation on the interaction | Variant
9 | with no effect | S393L

Variants of: B5
Details: with fbf1_human FBF1, Q8TES7
Remark: another data set of the same source

Row | effect of a mutation on the interaction | Variant
10 | with no effect | D59N

Variants of: B6
Details: with syne4_human SYNE4, Q8N205

Row | effect of a mutation on the interaction | Variant
11 | with no effect | R176H
12 | with no effect | R124Q
